Experimental data as given in patent US20190202883A1 (Takeda / Millennium, published 2019).
Square brackets hold non-standard residues; d marks the D form. Side chains are listed from the residue outwards. αMeF = C[C@](N)(Cc1ccccc1)C(=O)O; Iva = CC[C@](C)(N)C(=O)O; Oda = not defined here; Aib = CC(C)(N)C(=O)O

T1: human GIPR (human, UniProt P48546 22-466)
T1 sequence (looked up): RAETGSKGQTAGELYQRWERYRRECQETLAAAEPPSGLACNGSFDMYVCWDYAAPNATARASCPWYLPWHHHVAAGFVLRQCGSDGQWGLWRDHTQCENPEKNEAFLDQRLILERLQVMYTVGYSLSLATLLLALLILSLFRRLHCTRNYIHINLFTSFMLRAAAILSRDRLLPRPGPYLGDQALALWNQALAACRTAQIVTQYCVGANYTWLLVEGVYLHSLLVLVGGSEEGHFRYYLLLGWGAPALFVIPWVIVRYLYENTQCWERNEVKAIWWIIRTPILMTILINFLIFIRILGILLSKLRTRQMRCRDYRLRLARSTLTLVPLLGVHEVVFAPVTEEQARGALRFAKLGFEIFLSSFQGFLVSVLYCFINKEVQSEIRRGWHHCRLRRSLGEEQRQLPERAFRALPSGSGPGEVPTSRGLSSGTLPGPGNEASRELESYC

T2: human NPY2R (human, UniProt P49146 1-381)
T2 sequence (looked up): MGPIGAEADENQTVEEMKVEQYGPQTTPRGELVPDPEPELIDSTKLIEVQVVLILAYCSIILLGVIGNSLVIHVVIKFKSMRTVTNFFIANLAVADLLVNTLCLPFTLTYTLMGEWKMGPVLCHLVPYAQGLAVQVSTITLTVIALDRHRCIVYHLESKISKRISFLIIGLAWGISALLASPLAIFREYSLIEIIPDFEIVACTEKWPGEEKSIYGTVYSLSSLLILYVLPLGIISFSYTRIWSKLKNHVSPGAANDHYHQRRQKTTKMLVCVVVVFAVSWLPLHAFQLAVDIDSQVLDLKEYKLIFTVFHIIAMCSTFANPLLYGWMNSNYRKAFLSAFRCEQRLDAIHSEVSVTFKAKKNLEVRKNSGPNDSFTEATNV

B1: Me-Tyr-Aib-Glu-Gly-Thr-αMePhe-Thr-Ser-Asp-Lys(-Gly-Gly-Gly-Gly-Oda)-Ser-Lys-Aib-Leu-Asp-Lys-Gln-Arg-Gln-Iva-Glu-Phe-Val-Arg-His-Leu-Leu-Asn-Lys-Aib-Thr-Arg-Gln- … (peptide)
peptide: Me-Y[Aib]EGT[αMeF]TSDK([Gly-Gly-Gly-Gly-Oda])SK[Aib]LDKQRQ[Iva]EFVRHLLNK[Aib]TRQRY-NH2
modifications: reading uncertain; also: printed as Me-Tyr-Aib-Glu-Gly-Thr-αMePhe-Thr-Ser-Asp-Lys(-Gly-Gly-Gly-Gly-Oda)-Ser-Lys-Aib-Leu-Asp-Lys-Gln-Arg-Gln-Iva-Glu-Phe-Val-Arg-His-Leu-Leu-Asn-Lys-Aib-Thr-Arg-Gln-Arg-Tyr-NH2
B2: H-Tyr-Aib-Glu-Gly-Thr-αMePhe-Thr-Ser-Asp-Lys(-Gly-Gly-Gly-Gly-Oda)-Aib-Ile-Aib-Leu-Asp-Lys-Gln-Ala-Gln-Iva-Glu-Phe-Val-Arg-His-Leu-Leu-Asn-Lys-Aib-Thr-Arg-Gln-A … (peptide)
peptide: H-Y[Aib]EGT[αMeF]TSDK([Gly-Gly-Gly-Gly-Oda])[Aib]I[Aib]LDKQAQ[Iva]EFVRHLLNK[Aib]TRQRY-NH2
modifications: reading uncertain; also: printed as H-Tyr-Aib-Glu-Gly-Thr-αMePhe-Thr-Ser-Asp-Lys(-Gly-Gly-Gly-Gly-Oda)-Aib-Ile-Aib-Leu-Asp-Lys-Gln-Ala-Gln-Iva-Glu-Phe-Val-Arg-His-Leu-Leu-Asn-Lys-Aib-Thr-Arg-Gln-Arg-Tyr-NH2
B3: Me-Tyr-Aib-Glu-Gly-Thr-αMePhe-Thr-Ser-Asp-Lys(-Gly-Gly-Gly-Gly-Oda)-Aib-Ile-Aib-Leu-Asp-Lys-Gln-Ala-Gln-Iva-Glu-Phe-Val-Arg-His-Leu-Leu-Asn-Lys-Aib-Thr-Arg-Gln- … (peptide)
peptide: Me-Y[Aib]EGT[αMeF]TSDK([Gly-Gly-Gly-Gly-Oda])[Aib]I[Aib]LDKQAQ[Iva]EFVRHLLNK[Aib]TRQRY-NH2
modifications: reading uncertain; also: printed as Me-Tyr-Aib-Glu-Gly-Thr-αMePhe-Thr-Ser-Asp-Lys(-Gly-Gly-Gly-Gly-Oda)-Aib-Ile-Aib-Leu-Asp-Lys-Gln-Ala-Gln-Iva-Glu-Phe-Val-Arg-His-Leu-Leu-Asn-Lys-Aib-Thr-Arg-Gln-Arg-Tyr-NH2
B4: H-Tyr-Aib-Glu-Gly-Thr-αMePhe-Thr-Ser-Asp-Lys(-Gly-Gly-Gly-Gly-Oda)-Aib-Ile-Aib-Leu-Glu-Lys-Gln-Arg-Gln-Iva-Glu-Phe-Val-Arg-His-Leu-Leu-Asn-Lys-Aib-Thr-Arg-Gln-A … (peptide)
peptide: H-Y[Aib]EGT[αMeF]TSDK([Gly-Gly-Gly-Gly-Oda])[Aib]I[Aib]LEKQRQ[Iva]EFVRHLLNK[Aib]TRQRY-NH2
modifications: reading uncertain; also: printed as H-Tyr-Aib-Glu-Gly-Thr-αMePhe-Thr-Ser-Asp-Lys(-Gly-Gly-Gly-Gly-Oda)-Aib-Ile-Aib-Leu-Glu-Lys-Gln-Arg-Gln-Iva-Glu-Phe-Val-Arg-His-Leu-Leu-Asn-Lys-Aib-Thr-Arg-Gln-Arg-Tyr-NH2

Tests used:
Test in all cases: cell-based or functional assay
[1] = molecular target: T1, human GIPR
[2] = molecular target: human GLP-1R (human, UniProt P43220 24-463)
[3] = molecular target: T2, human NPY2R

Row | Binder | Agonist activity (EC50), Cre-luc reporter assay [1] [nM] | Agonist activity (EC50), Cre-luc reporter assay [2] [nM] | Agonist activity (EC50), Cre-luc reporter assay [3] [nM]
1 | Me-Y[Aib]EGT[αMeF]TSDK([Gly-Gly-Gly-Gly-Pal])SK[Aib]LDKQRQ[Iva]EFVRHLLNK[Aib]TRQRY-NH2 | 0.048 | 0.073 | 0.02
2 | B1 | 0.38 | 4.5 | 1.2
3 | H-Y[Aib]EGT[αMeF]TSDK([Gly-Gly-Gly-Gly-Pal])[Aib]I[Aib]LDKQAQ[Iva]EFVRHLLNK[Aib]TRQRY-NH2 | 0.041 | 0.042 | 0.038
4 | B2 | 0.074 | 0.078 | 2.4
5 | Me-Y[Aib]EGT[αMeF]TSDK([Gly-Gly-Gly-Gly-Pal])[Aib]I[Aib]LDKQAQ[Iva]EFVRHLLNK[Aib]TRQRY-NH2 | 0.038 | 0.043 | 0.03
6 | B3 | 0.074 | 0.15 | 3.3
7 | H-Y[Aib]EGT[αMeF]TSDK([Gly-Gly-Gly-Gly-Pal])[Aib]I[Aib]LEKQRQ[Iva]EFVRHLLNK[Aib]TRQRY-NH2 | 0.049 | 0.061 | 0.057
8 | B4 | 0.52 | 0.25 | 2.7
9 | Me-Y[Aib]EGT[αMeF]TSDK([Gly-Gly-Gly-Gly-Pal])[Aib]I[Aib]LEKQRQ[Iva]EFVRHLLNK[Aib]TRQRY-NH2 | 0.082 | 0.13 | 0.067
